Where “and” joins values, the source holds several entries; their conditions need not be identical. Identical values can stand only once.
Columns and labels:
3D7 PfAMA1 (DI + DII) [1] = target: T1, 3D7 PfAMA1 (DI + DII) (Plasmodium falciparum 3D7, UniProt Q7KQK5 104-438); assay: SPR
T1 sequence (looked up): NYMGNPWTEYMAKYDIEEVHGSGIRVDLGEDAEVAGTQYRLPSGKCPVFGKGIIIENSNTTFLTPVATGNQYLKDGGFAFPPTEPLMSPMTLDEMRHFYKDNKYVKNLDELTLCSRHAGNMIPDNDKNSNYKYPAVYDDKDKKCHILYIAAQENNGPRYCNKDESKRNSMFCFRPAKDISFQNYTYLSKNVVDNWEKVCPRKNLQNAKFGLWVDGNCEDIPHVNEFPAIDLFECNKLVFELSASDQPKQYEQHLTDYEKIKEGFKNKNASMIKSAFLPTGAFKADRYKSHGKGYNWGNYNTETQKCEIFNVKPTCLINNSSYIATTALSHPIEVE

3D7 PfAMA1 (DI + DII) [2] = target: T1, 3D7 PfAMA1 (DI + DII); assay: ITC

DITQQAKDIGAGPVASCFTTRMSPPQQICLNSVVNTALS (peptide, UniProt Q8IKV6 2021-2059, looked up) [PfRON2ed peptide (Asp2021-Ser2059)]
Kd (3D7 PfAMA1 (DI + DII) [1]): 21.9 ± 1.89 nM | Kd (3D7 PfAMA1 (DI + DII) [2]): 122 nM and 93.5 to 137 nM

Reference: PMC7907217 (Biochemistry and Biophysics Reports, 2021)
